Measurements taken from patent publication US20190202925A1 (OPI VI IP HOLDCO, published 2019).

Key:
[1] = molecular target: T1, monomeric human TNFR2 extracellular domain (human, UniProt P20333 23-257); assay: BLI (Octet Red 96), Human TNFR2 Kd (1-1)
T1 construct: extracellular domain; Analyte in the Octet experiments; also called human TNFR2 ECD
T1 sequence (looked up): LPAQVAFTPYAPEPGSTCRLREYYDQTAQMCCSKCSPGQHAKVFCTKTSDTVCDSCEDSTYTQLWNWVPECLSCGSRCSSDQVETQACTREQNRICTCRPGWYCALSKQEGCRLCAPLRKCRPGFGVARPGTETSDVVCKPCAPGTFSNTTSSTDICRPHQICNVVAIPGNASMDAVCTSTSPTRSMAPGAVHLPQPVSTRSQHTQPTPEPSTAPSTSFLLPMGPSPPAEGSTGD

soluble human TNFR2 [2] = molecular target: T2, soluble human TNFR2 (human, UniProt P20333 23-257); assay: competition ELISA: plate-bound soluble TNFR2, antibody titrated against constant biotinylated TNFα, streptavidin-HRP, A450
T2 construct: also called soluble TNFR2
T2 sequence (looked up): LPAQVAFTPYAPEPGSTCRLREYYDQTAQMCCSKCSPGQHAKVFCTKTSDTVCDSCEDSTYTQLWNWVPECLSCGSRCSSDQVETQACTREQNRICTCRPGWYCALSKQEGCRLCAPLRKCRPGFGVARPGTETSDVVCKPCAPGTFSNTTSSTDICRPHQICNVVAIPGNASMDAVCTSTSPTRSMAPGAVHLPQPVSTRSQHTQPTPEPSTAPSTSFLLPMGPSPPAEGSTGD
From the text: (§1) Soluble human TNFR2 was coated on Nunc-Immuno™ plates. […] IC₅₀ values are reported in nM.
(§2) IC₅₀ values are reported in nM.

soluble human TNFR2 [3] = molecular target: T2, soluble human TNFR2; assay: competition ELISA (FIG. 2), plate-bound soluble human TNFR2, constant biotinylated TNFα as competitor
From the text: as §1

[4] = molecular target: T1, monomeric human TNFR2 extracellular …; assay: BLI (Octet Red 96), antibody captured on Fc biosensor, monomeric TNFR2 ECD in solution, 1:1 model
Experimental: (§3) Analysis of binding to the human and cynomolgus TNFR2 ECD was performed using an Octet Red 96 Instrument™ (ForteBio). […] The experiments were performed using five steps: (1) baseline acquisition (60 s); (2) antibody loading on to anti-human or anti-mouse Fc biosensors (120 s); (3) second baseline acquisition (60 s); (4) association of interacting monomeric human or cynomolgus TNFR2 ECD protein for kₒₙ measurement (120 s); and (5) dissociation of interacting monomeric human or cynomolgus TNFR2 ECD for koff measurement (240-3600 s).
(§4) The interacting monomeric human or cynomolgus ECD was used at 5-6 concentrations of a 3-fold concentration series. The data were analyzed using Octet Data Analysis Software 9.0™ (ForteBio) and fit to the 1:1 binding model. The equilibrium dissociation constants (Kd) were calculated by the ratio of […].

soluble human TNFR2 [5] = molecular target: T2, soluble human TNFR2; assay: competition ELISA, plate-bound soluble human TNFR2, biotinylated TNFα as competitor
Experimental: (§5) Soluble human TNFR2 (Sino Biological, 10417-H08H) or cynomolgus TNFR2 (Sino Biological, 90102-C08H) was coated on Nunc-Immuno™ plates at 0.1 μg/ml, 0.5 ug/ml, 1 μg/ml, and 5 μg/ml. […] Plates were developed using TMB and stopped with 3 M HCl.
as §2

human TNFR2 on cells = molecular target: T3, human TNFR2 on cells (human, UniProt P20333 23-461); assay: flow cytometry on human PBMC, antibody at 10 ug/mL, anti-human Fc-PE secondary
T3 construct: whole, on cells; also called TNFR2 on Jurkat clone H6; human TNFR2 on CD4+ and CD8+ T cells
T3 sequence (looked up): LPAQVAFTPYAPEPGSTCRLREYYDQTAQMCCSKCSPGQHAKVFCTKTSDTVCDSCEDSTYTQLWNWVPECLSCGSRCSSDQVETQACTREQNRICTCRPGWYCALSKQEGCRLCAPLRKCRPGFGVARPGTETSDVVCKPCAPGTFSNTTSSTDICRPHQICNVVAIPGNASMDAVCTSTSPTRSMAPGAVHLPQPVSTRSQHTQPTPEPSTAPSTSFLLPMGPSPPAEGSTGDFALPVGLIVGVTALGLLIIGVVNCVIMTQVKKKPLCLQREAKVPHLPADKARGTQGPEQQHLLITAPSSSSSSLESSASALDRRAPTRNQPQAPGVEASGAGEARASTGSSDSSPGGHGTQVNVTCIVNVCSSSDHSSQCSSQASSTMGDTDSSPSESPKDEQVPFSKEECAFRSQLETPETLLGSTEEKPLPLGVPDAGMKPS
Experimental: The following day 0.3×10⁶ PBMC were counted and washed with PBS (Lonza). PBMCs were resuspended in Fixable Viability Stain 575V (BD) diluted 1:1,000 in PBS and incubated for 10 minutes. PBMCs were then washed twice in PBS to remove residual viability stain. PBMCs were then resuspended in Horizon Brilliant Stain Buffer (BD) with 10 uL per test of human Fc receptor binding inhibitor (eBioscience) and incubated on ice for 20 minutes to block Fc receptors. […] PBMCs were incubated 20 minutes on ice and then washed three times with 2% FBS PBS. To visualize TNFR chimeric antibody binding, PBMCs were resuspended in goat anti-human Fc-PE F(ab′)₂ secondary reagent (Jackson ImmunoResearch) diluted 1:200 in 2% FBS PBS and incubated on ice for 20 minutes. Cells were then washed three times in 2% FBS PBS and resuspended in 200 uL 2% FBS PBS for flow cytometry analysis using a BD FACS Celesta instrument and FACS Diva software. T cells were analyzed for chimeric TNFR2 binding by gating on viable cells defined as lymphocytes using forward and side scatter and as T cells by anti-CD3 staining. CD4⁺ and CD8⁺ subsets were identified by commercially available specific antibody conjugates.

soluble cynomolgus TNFR2 [6] = molecular target: T4, soluble cynomolgus TNFR2 (cynomolgus, UniProt A0A2K5VET2 132-366); assay: competition ELISA: plate-bound soluble cynomolgus TNFR2, competitor biotinylated TNFα; IC50 relative to unlabelled TNFα = 1.00
T4 sequence: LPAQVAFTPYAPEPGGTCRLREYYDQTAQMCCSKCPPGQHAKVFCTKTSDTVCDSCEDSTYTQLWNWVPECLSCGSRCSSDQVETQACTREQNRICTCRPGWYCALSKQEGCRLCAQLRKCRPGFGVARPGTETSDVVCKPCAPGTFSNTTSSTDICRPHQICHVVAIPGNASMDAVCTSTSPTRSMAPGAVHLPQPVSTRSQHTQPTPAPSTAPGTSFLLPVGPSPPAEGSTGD
Experimental: as §5, §2

soluble human TNFR2 [7] = molecular target: T2, soluble human TNFR2; assay: competition ELISA: plate-bound soluble human TNFR2, competitor biotinylated TNFα; IC50 relative to unlabelled TNFα = 1.00
Experimental: as §5, §2

soluble cynomolgus TNFR2 [8] = molecular target: T4, soluble cynomolgus TNFR2; assay: competition ELISA, plate-bound soluble cynomolgus TNFR2, biotinylated TNFα as competitor
Experimental: as §5, §2

soluble cynomolgus TNFR2 [9] = molecular target: T4, soluble cynomolgus TNFR2; assay: competition ELISA: plate-bound soluble cynomolgus TNFR2, competitor biotinylated TNFα, streptavidin-HRP, A450
Experimental: as §5

[10] = molecular target: T5, monomeric cynomolgus TNFR2 extracellular domain (cynomolgus monkey, UniProt A0A2K5VET2 132-366); assay: BLI (Octet Red 96), antibody captured on Fc biosensor, monomeric TNFR2 ECD in solution, 1:1 model
T5 construct: extracellular domain; Analyte in the Octet experiments; also called cynomolgus TNFR2 ECD; Cyno TNFR2
T5 sequence: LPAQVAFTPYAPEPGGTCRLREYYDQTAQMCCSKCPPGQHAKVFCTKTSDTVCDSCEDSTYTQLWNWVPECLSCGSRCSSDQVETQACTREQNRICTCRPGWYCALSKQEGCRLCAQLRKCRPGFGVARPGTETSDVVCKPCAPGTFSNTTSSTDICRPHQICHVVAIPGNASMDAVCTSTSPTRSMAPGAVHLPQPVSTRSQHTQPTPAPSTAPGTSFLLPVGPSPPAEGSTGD
Experimental: as §3, §4

[11] = molecular target: T6, cynomolgus TNFR2 on cells (cynomolgus); assay: flow cytometry on cynomolgus PBMC, antibody at 10 ug/mL, anti-human Fc-PE secondary
T6 construct: whole, on cells; also called cynomolgus TNFR2 on CD4+ and CD8+ T cells
Experimental: Cynomolgus peripheral blood mononuclear cells (PBMCs) from two independent donors were isolated by diluting whole blood (SNBL USA) 1:1 in PBS (Lonza), layering over Ficoll-Paque Plus (GE Healthcare), and centrifuging for 35 minutes at 400×g. The PBMC fraction was removed, washed 3 times in 2% FBS PBS and counted. 0.3×10⁶ PBMC were resuspended in Fixable Viability Stain 575V (BD) diluted 1:1000 in PBS and incubated for 10 minutes. PBMC were then washed twice in PBS to remove residual viability stain, resuspended in Horizon Brilliant Stain Buffer (BD) with 10 uL per test of human Fc receptor binding inhibitor (eBioscience), and incubated on ice for 20 minutes to block Fc receptors. […] PBMC were incubated 20 minutes on ice and then washed three times with 2% FBS PBS. To visualize TNFR2 chimeric antibody binding, PBMC were resuspended in goat anti-human Fc-PE F(ab′)₂ secondary reagent (Jackson ImmunoResearch) diluted 1:200 in 2% FBS PBS and incubated on ice for 20 minutes. Cells were then washed three times in 2% FBS PBS and resuspended in 200 uL 2% FBS PBS for flow cytometry analysis using a BD FACS Celesta instrument and FACS Diva software. T cells were analyzed for chimeric TNFR2 binding by gating on viable cells defined as lymphocytes using forward and side scatter and as T cells by anti-CD3 staining. CD4⁺ and CD8⁺ subsets were identified using commercial specific antibody conjugates.

soluble human TNFR2 [12] = molecular target: T2, soluble human TNFR2; assay: competition ELISA: plate-bound soluble human TNFR2, competitor biotinylated TNFα, streptavidin-HRP, A450
Experimental: as §5

| Kd [1] | IC50 (soluble human TNFR2 [2]) | IC50 (soluble human TNFR2 [3]) | Kd [4] | Average Relative IC50 (soluble human TNFR2 [5]) | % CD4^+ ab^+ Donor 1 (human TNFR2 on cells) | % CD4^+ ab^+ Donor 2 (human TNFR2 on cells) | % CD8^+ ab^+ Donor 1 (human TNFR2 on cells) | % CD8^+ ab^+ Donor 2 (human TNFR2 on cells) | Relative IC50 (soluble cynomolgus TNFR2 [6]) | Relative IC50 (soluble human TNFR2 [7]) | Average Relative IC50 (soluble cynomolgus TNFR2 [8]) | IC50 (soluble cynomolgus TNFR2 [9]) | Kd [10] | % CD4^+ ab^+ Donor 1 [11] | % CD4^+ ab^+ Donor 2 [11] | % CD8^+ ab^+ Donor 1 [11] | % CD8^+ ab^+ Donor 2 [11] | IC50 (soluble human TNFR2 [12]) | Binder |
| --- | --- | --- | --- | --- | --- | --- | --- | --- | --- | --- | --- | --- | --- | --- | --- | --- | --- | --- | --- |
| 1.2 nM | 8.5 nM | 10.5 nM | 1.2 nM | – | – | – | – | – | – | – | – | – | – | – | – | – | – | – | SBT-003 (antibody, V domains shown, Parental mouse antibody; also called mouse SBT-003) VH: QIQLVQSGPELKKPGETVKISCKASGYTFTDYSMHWVKQAPGKGLKWMGWINTETGEPTYADDFKGRFAFSSETSTSTAYLQINNLKNDDTTTYFCATYYGSSYVPDYWGQGTSLTVSS VL: DIVMTQSHKFMSTSVGDRVSITCKASQNVGTAVAWYQHKPGQSPKLLIYWTSSRHTGVPDRFTGSGSGTEFTLTISNVQSEDLADYFCHQYSDYPYTFGGGTKLEIK |
| – | – | – | 2.8 nM | 2.93 nM | 29.3% | 18.4% | 9.1% | 11.4% | 1.57 nM | 2.33 nM | 1.56 | 15.1 nM | 7.9 nM | 8% | 5.5% | 9.2% | 11% | 12.9 nM | chimeric SBT-004b (antibody, human IgG1, V domains shown, Same heavy chain as chSBT-004 (human IgG1 Fc domain); also called chSBT-004b) VH: EVQLQQSGPEVGRPGSSVKISCKASGYTFTDYIMHWVKQSPGQGLEWIGWVDPEYGSTDYAEKFKKKATLTADTSSNTAYIQLSSLTSEDTATYFCARDDGSYSPFDYWGQGVMVTVSS VL: NIVMTQSPKSMSMSVGERVTLTCKASENVVTYVSWYQQKPEQSPKLLIYGASNRYTGVPDRFTGSGSATDFTLTISSVQAEDLADYHCGQGYSYPYTFGGGTKLEIK |
